The subject of one data set is A375 melanoma cell line. Briefly: In vitro assay for inhibition of MICA shedding, A375 cells (sandwich ELISA of supernatant). The format is cell-based, human. Particulars: A375 cells treated for 24 hours. The protocol: Tumor cells (5×10^4 or 1×10^5 per well, depending on the cell line) were cultured for 24 to 72 hours in 96-well plates (flat-bottom plates for adherent cell lines, U-bottom plates for suspension cell lines). Human and murine cell lines were cultivated in RPMI-1640 or DMEM media, respectively, supplemented with 10% fetal bovine serum (FBS), 1× Glutamax® (Gibco), and 1× Penicillin and Streptomycin (Gibco). MICA or control antibodies were added at different concentrations, and shed MICA/B was then detected in supernatants by ELISA using the Human MICA ELISA kit (Ab59569, Abcam) or Human MICB DuoSet ELISA kit (DY1599, R&D Systems), using the procedures recommended by the manufacturers. For both assays, standard curves were generated using recombinant MICA*008 or MICB*005 extracellular domain proteins that had been expressed using the Baculovirus system.
On the technique in general: ELISA stands for enzyme-linked immunosorbent assay.

Another data set deals with A375 cells. Briefly: NK cell cytotoxicity assay (51Cr release), human NK cells against human tumor cells. Format: cell-based. The note with it: human NK cells; antibody added at time of killing assay (10 μg/ml, 66.7 nM). How it is done: Human NK cells were isolated from fresh leukapheresis blood collars that had been generated by Brigham & Women's Hospital, Boston, from healthy donors. Samples were diluted with an equal volume of PBS and blood mononuclear cells were isolated by Ficoll density gradient centrifugation. Cells were washed with PBS, and NK cells were isolated by negative selection using the Human NK Cell Isolation Kit (130-092-657, Miltenyi Biotech) using an autoMACS system (Miltenyi Biotech). Enriched NK cells (purity of 50-90%) were then incubated with anti-CD56 (PE or APC conjugated) and anti-CD3 (FITC or Pacific Blue conjugated) (Biolegend) and sorted using a BD FACS Aria. Following sorting, NK cell purity was ˜99%. These cells were cultured for twelve hours in complete RPMI media supplemented with 300-1000 U/ml of recombinant human IL-2 (BD Pharmingen).
Target cells were labeled for 1 hour with 100 μCi of ^51[Cr] per 2×10^6 cells in 0.2 ml of media. Subsequently, cells were washed and plated in V-bottom 96-wells plates (5,000 target cells per well). To determine the experimental release, NK cells were added in an equal volume, but at different ratios. To determine maximum and spontaneous release, target cells were mixed with an equal volume of 2% Triton-X100 in PBS or an equal volume of media, respectively. Antibodies were added at a final concentration of 10 μg/ml.
For experiments shown in FIGS. 1E, 10, and 13E antibodies were added at the time of the killing assay. For FIGS. 3A-B, antibodies were added to tumor cells 48 hours prior to labelling with ^51[Cr] to inhibit MICAS shedding. The isotype control antibody for assays with human NK cells was recombinant human IgG1 Fc (BE0096, BioXcell). […] At the end of the incubation period, plates were centrifuged (2000 rpm, 5 minutes), part of the supernatant was collected, mixed with scintillation fluid, and radioactivity was quantified using a MicroBeta2 reader (Perkin Elmer). Specific killing was calculated using the following formula: 100×(Experimental release−Spontaneous release)/(Maximum release−Spontaneous release).

The test system of the next data set is B16F10-MICA cells. Briefly: Mouse NK cell transfer and B16F10-MICA metastases in Rag2−/− Il2rg−/− mice. Format: in vivo. How it is done:
NK cell adoptive transfer was done as described previously (25). Briefly, NK cells from mice of indicated genotypes were isolated from the spleen, enriched by negative selection, and sorted to achieve an NK cell purity of ˜99%. Subsequently, 2×10^5 NK cells were injected intravenously into Rag2^−/− IL2rg^−/− mice. Three days later, reconstitution was checked in blood samples by flow cytometry, and no differences in NK cell frequency were observed among the NK cell genotypes. Subsequently, 4×10^5 B16F10-MICA cells (with luciferase reporter) were injected intravenously (day 0). On days 1, 2, 7, and 10, mice received 200 μg 7C6-mIgG2b or MPC-11 (isotype control) by intraperitoneal injection. Mice were bled at the indicated time points. Euthanasia by CO2 inhalation was performed on day 14 followed by counting of superficial lung metastases as described above.

B1: 7C6: monoclonal antibody from mice immunized with recombinant MICA α3 domain; parental mIgG2b; VH SEQ ID NO: 7, VL SEQ ID NO: 8 (antibody)
VH: QIQLVQSGPELKKPGETVKVSCKASGYMFTNYAMNWVKQAPEKGLKWMGWINTHTGDPTYADDFKGRIAFSLETSASTAYLQINNLKNEDTATYFCVRTYGNYAMDYWGQGTSVTVSSAKTTAPSVYPLAPVCGDTTGSSVTLGCLVKGYFPEPVTLTWNSGSLSSGVHTFPAVLQSDLYTLSSSVTVTSS
VL: DIQMTQTTSSLSASLGDRVTISCSASQDISNYLNWYQQKPDGTVKLLIYDTSILHLGVPSRFSGSGSGTDYSLTISNLEPEDIATYYCQQYSKFPRTFGGGTTLEIK
modifications: mAb 7C6 heavy chain amino acid sequence; mAb 7C6 light chain amino acid sequence
With B1, the “MICA shedding (shed MICA released into supernatant)” value in the data set on A375 melanoma cell line is on record as “inhibit MICA release into the supernatant”. The “NK cell mediated cytotoxicity against human tumor cells” value in the data set with A375 cells was “increases NK cell cytotoxicity”. In addition, in the data set with B16F10-MICA cells (day 14), the “lung metastases after transfer of NK cells deficient in either NKG2D (Klrk1) or CD16 (Fcgr3a)” value was “therapeutic effect was maintained (but more variable)”; the “lung metastases after transfer of NK cells lacking both NKG2D and CD16” value is recorded as “antibody therapy was ineffective”; the “lung metastases after transfer of WT NK cells” value is listed as “most consistent reduction in the number of lung metastases”. In addition, the “serum shed MICA after transfer of NK cells lacking both NKG2D and CD16” value in the data set with B16F10-MICA cells (mouse, in vivo) is “shed MICA was still reduced”.

Values taken from US12662540B2, “Compositions and methods for inhibition of MICA/B shedding” (DANA-FARBER CANCER INSTITUTE, INC., priority 2017, dated 2026).
